These results are taken from patent publication US20180000755A1 (UNIVERSITY OF TOKYO, published 2018).

The target in the assay is T1, fragment consisting of the region of the 500th to 656th amino acids of FROUNT protein (Homo sapiens (Human), UniProt Q9BW27 500-656).
T1 construct: Fragment used in the NMR analysis; No tag is mentioned; also called FROUNT C-terminal fragment
T1 sequence: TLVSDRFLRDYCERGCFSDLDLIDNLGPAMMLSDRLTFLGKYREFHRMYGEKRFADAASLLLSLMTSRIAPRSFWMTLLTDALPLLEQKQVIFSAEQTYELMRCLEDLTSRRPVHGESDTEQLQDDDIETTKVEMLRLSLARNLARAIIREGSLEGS
Description: NMR chemical shift perturbation.

B1: CCR2 pro-C region fragment of 16 residues (SEQ ID NO:3) (peptide)
peptide: EKFRRYLSVFFRKHIT
notes: Peptide used in the NMR analysis; No biotinylation is mentioned
On to B1, for which the binding result is recorded as “binds”.
